{"source": "patent US20250376696A1", "target": "SIRPα of non-obese diabetic (NOD) mice (mouse (NOD strain)) (UniProt O89094)", "sequence (O89094 168-257)": "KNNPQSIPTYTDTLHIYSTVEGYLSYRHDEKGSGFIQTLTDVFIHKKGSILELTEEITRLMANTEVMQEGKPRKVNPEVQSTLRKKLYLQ", "test": "cell-based or functional assay"}
{"substance": "human CD47 on lentiviral vector (LV) particles (from UniProt Q08722 19-323) (receptor)", "values": [{"measurement": "LV copies in plasmacytoid dendritic cells (pDC), NOD versus C57BL/6 mice", "result": "> 10", "unit": "fold"}, {"measurement": "LV copies per cell (vector copy number, VCN) in sorted hepatocytes, NOD versus C57BL/6 mice", "result": 4, "unit": "fold"}, {"measurement": "VCN in liver macrophages, NOD versus C57BL/6 mice", "result": 30, "unit": "fold"}, {"measurement": "VCN in spleen, NOD versus C57BL/6 mice", "result": 5, "unit": "fold"}]}
